Series [1] in a line: SDS-PAGE based thermal stability (heat treatment). The class given is physicochemical. The source says:
The thermal stability characteristics of the proteins were studied by a SDS-PAGE based method as previously described in detail by (Bayer et al., 1996).
(§1) The apparent molecular mass is indicated and followed by the theoretical mass in brackets. Transition temperature (Tr) indicates the temperature in which half of the protein is tetrameric and half monomeric in the absence (first value) and presence (second value) of biotin. In addition to the measured dissociation rate constant (kdiss), the release percentage of the fluorescent biotin conjugate in one hour in the presence of excess free biotin is indicated. Calculated isoelectrical point (pI) and the number of cysteine residues per monomer are also indicated.

Series [2] can be described thus: Fluorescent biotin conjugate dissociation assay. Type of series: binding. The settings on record: for Fluorescent biotin kdiss: ArcDia BF560-biotin; for Fluorescent biotin kdiss / Release 1 h of fluorescent biotin conjugate: 50° C.; for Release 1 h of fluorescent biotin conjugate: one hour, presence of excess free biotin; for Fluorescent biotin conjugate dissociation (in words): fluorescent biotin conjugate as ligand. Here is the method:
(§2) FIG. 2 Biotin dissociation analysis. (A) The [3H]biotin dissociation rate constant was measured at different temperatures. The values for streptavidin are from Klumb et al. (Klumb et al., 1998). The scale of the Y axis is logarithmic. (B) Release of fluorescent biotin conjugate from avidins was studied as a function of time in the presence of excess D-biotin at 50° C.
(§3) Ligand binding properties were studied both by [3H]biotin assay and fluorescent biotin conjugate assay. The dissociation rate constant of [3H]biotin (Amersham) from the bradavidins and avidin was measured at various temperatures as described in detail previously (Klumb et al., 1998). According to the results, (Table I, FIG. 2) the faster dissociation rate measured from bradavidin indicates weaker affinity toward the radiobiotin than those of avidin and streptavidin. The dissociation rate of a fluorescent biotin conjugate (ArcDia BF560™-biotin) was measured as previously described (Hytönen et al., 2004a) at 50° C.
as §1

A short description of series [3]: [3H]biotin dissociation rate assay. Type of series: binding. The settings on record: radio-biotin, different temperatures. The procedure: as §2, §3
The conditions of series [4]: values from Bayer et al., 1996, cited from earlier work.

Read-outs that look alike come from different tables or passages of the source. Marks after values point to notes of the source that are not given here.

B1: Bradavidin-core: C-terminally truncated core form (118 amino acid residues, SEQ ID NO:2) of biotin-binding protein from Bradyrhizobium japonicum, produced in E. coli (protein, listed as Bradyrhizobium japonicum)
chain: QSVNWTWTNQYGSTLAITSFNSNTGAITGTYTNNAANSCDEGKPQGVTGWLAYGNTGTAISFSVNFLGCGSTTVWTGQLNNATGFQGLWYLSLAEAVAWNGISAGADTFTFSSGDKAL
With B1, the “Heat treatment SDS-PAGE Tr (transition temperature, half tetrameric and half monomeric)” value in series [1] (absence of biotin) is on record as 70^ ° C. Further, in series [1] (presence of biotin), the “Heat treatment SDS-PAGE Tr (transition temperature, half tetrameric and half monomeric)” value is 85 °C. Moreover, in series [2], the Fluorescent biotin kdiss turned out to be 1.2e-05 s⁻¹ and the “Release 1 h of fluorescent biotin conjugate” value (shortened to “Release 1 h”) stood at 4.4%.

B2: Bradavidin: full length wild-type (138 amino acid residues, SEQ ID NO:1) avidin-like biotin-binding protein from Bradyrhizobium japonicum (protein, listed as Bradyrhizobium japonicum)
chain: QSVNWTWTNQYGSTLAITSFNSNTGAITGTYTNNAANSCDEGKPQGVTGWLAYGNTGTAISFSVNFLGCGSTTVWTGQLNNATGFQGLWYLSLAEAVAWNGISAGADTFTFSSGDKALLTKSGVDLKAGSEKLSNTKK
With B2, the “[3H]biotin dissociation rate (in words)” value in series [3] is “fastest dissociation rate”. The “Heat treatment SDS-PAGE Tr (transition temperature, half tetrameric and half monomeric)” value in series [1] (absence of biotin) was 65^ ° C. Besides, the “Heat treatment SDS-PAGE Tr (transition temperature, half tetrameric and half monomeric)” value in series [1] (presence of biotin) was found to be 85 °C. Further, in series [2], the Fluorescent biotin kdiss was 1.5e-05 s⁻¹; the “Fluorescent biotin conjugate dissociation (in words)” value was “very slow and small release”; the “Release 1 h” value was determined as 4.7%.

B3: Avidin: chicken avidin (SEQ ID NO:6), glycosylated biotin-binding protein (protein)
chain: NSARSTPGCPPAAEMVHATSPLLLLLLLSLALVAPGLSARKCSLTGKWTNDLGSNMTIGAVNSRGEFTGTYITAVTATSNEIKESPLHGTQNTINKRTQPTFGFTVNWKFSESTTVFTGQCFIDRNGKEVLKTMWLLRS
As to B3, the “Heat treatment SDS-PAGE Tr (transition temperature)” value in series [4] (absence of biotin) is on record as 58^a ° C. In addition, the “Heat treatment SDS-PAGE Tr (transition temperature)” value in series [4] (presence of biotin) is given as 100^a ° C. Besides, the “[3H]biotin dissociation rate (in words)” value in series [3] was “clearly the slowest dissociation”. In addition, in series [2], the Fluorescent biotin kdiss is 0.00027 s⁻¹, the “Fluorescent biotin conjugate dissociation (in words)” value was “clearly the fastest in dissociation” and the “Release 1 h” value is 71.5%.

The record behind these values is patent US20100022401A1, “Avidin-like proteins from symbiotic bacteria” (LICENTIA OY, priority 2004, published 2010).
